In US20190330277A1:
Several values for one entry are separate records, joined by “and”; a condition that tells them apart may be missing. Equal entries are not always repeated.

Assays:
[1] = target: bRSV RB94 DSCav1 (bovine respiratory syncytial virus, strain RB94) (UniProt P23728); test: biolayer interferometry Octet binding analysis
[2] = target: sc9-10_DS-CAV1_bRSV(RB94)_Fd_fp1_ig1; test: ELISA, variant from culture supernatant on Ni-NTA plate [continued]
[3] = target: 391-2-DS-Cav1-BZGJ9_gyc2; test: as above
[4] = target: RB94 DS-CAV1 N70K S104F K117T; test: as above
[5] = target: 391-2_DS-Cav1-tzsc4; test: as above
[6] = target: 391-2-DS-Cav1-IP-7; test: as above
[7] = target: 391-2-DS-Cav1-BZGJ9_gyc4; test: as above
[8] = target: 391-2-DS-Cav1-BZGJ9deleteFS; test: as above
[9] = target: 391-2-DS-Cav1-SC-IP-1; test: as above
[10] = target: 391-2_DS-Cav1-tzsc2; test: as above
[11] = target: RB94_sc9-10 DS-CAV1 L373R; test: as above
[12] = target: 391-2-DS-Cav1-BZGJ9_gyc6; test: as above
[13] = target: 391-2-DS-Cav1-BZGJ9_gyc3; test: as above
[14] = target: 391-2-DS-Cav1- F-SC_11R; test: as above
[15] = target: 391-2_DS-Cav1-tzsc9; test: as above
[16] = target: 391-2-DS-Cav1-IP-2; test: as above
[17] = target: sc9-10_DS-CAV1_bRSV(RB94)_Fd_(hRSV-leader)_ig1; test: as above
[18] = target: 391-2_DS-Cav1-tzsc6; test: as above
[19] = target: 391-2-DS-Cav1-BZGJ9; test: as above
[20] = target: 391-2-DS-Cav1-BZGJ9_gyc10; test: as above
[21] = target: 391-2wt_F-SC_12R core; test: ELISA, variant from culture supernatant on Ni-NTA plate
[22] = target: RB94 site 0 hRSV bovSurf DS-Cav1 Long FdPL; test: as above
[23] = target: sc9-10_DS-CAV1_bRSV(RB94)_Fd_hp2_fp1_ig1; test: as above
[24] = target: sc9-10_DS-CAV1_bRSV(RB94)_Fd_hp2_ig1; test: as above
[25] = target: RB94 DS-Cav1 Long FdPL; test: as above
[26] = target: 391-2-DS-Cav1-sc9 99C-361C; test: as above
[27] = target: 391-2-DS-Cav1_ sc9_I28C-G464C; test: as above
[28] = target: 391-2-DS-Cav1-BZGJ9 Long S190V; test: as above
[29] = target: 391-2-DS-Cav1_ sc9_T449C-V459C; test: as above
[30] = target: RB94 site 0 hRSV DS-Cav1-BZGJ9 Long FdPL; test: as above
[31] = target: RB94 sc9 DS-CAV1 N183GC-N428C L373R Long K226L; test: as above
[32] = target: 391-2-DS-Cav1-sc9deleteFS 99C-362C; test: as above
[33] = target: sc9-10_DS-CAV1_bRSV(RB94)_Fd_fp2_ig1; test: as above
[34] = target: 391-2-DS-Cav1-sc9deleteFS 98C-362C; test: as above
[35] = target: sc9-10_DS-CAV1_bRSV(RB94)_Fd_hp1_fp1_ig1; test: as above
[36] = target: sc9-10_DS-CAV1_bRSV(RB94)_Fd_hp1_ig1; test: as above
[37] = target: RB94 site 0 hRSV DS-Cav1 Long FdPL; test: as above
[38] = target: 391-2-DS-Cav1-sc9deleteFS 99C-361C; test: as above
[39] = target: 391-2wt-F_SC_11R; test: as above

motavizumab (antibody)
response level (biolayer interferometry) [1]: 0.5 nm | ELISA binding value [2]: 0.545 | ELISA binding value [3]: 1.58 | ELISA binding value [4]: 0.271 | ELISA binding value [5]: 0.639 and 0.505 | ELISA binding value [6]: 0.546 | ELISA binding value [7]: 0.486 | ELISA binding value [8]: 0.152 | ELISA binding value [9]: 1.1 | ELISA binding value [10]: 0.366 | ELISA binding value [11]: 0.689 | ELISA binding value [12]: 1.05 | ELISA binding value [13]: 0.599 | ELISA binding value [14]: 0.538 | ELISA binding value [15]: 1.59 | ELISA binding value [16]: 0.556 | ELISA binding value [17]: 0.538 | ELISA binding value [18]: 0.527 | ELISA binding value [19]: 0.5 | ELISA binding value [20]: 0.461 | ELISA binding value [21]: 0.821 | ELISA binding value [22]: 1.86 | ELISA binding value [23]: 2.18 | ELISA binding value [24]: 2.52 | ELISA binding value [25]: 0.841 | ELISA binding value [26]: 1.68 | ELISA binding value [27]: 0.569 | ELISA binding value [28]: 1.31 | ELISA binding value [29]: 0.49 | ELISA binding value [30]: 2.26 | ELISA binding value [31]: 0.633 | ELISA binding value [32]: 0.612 | ELISA binding value [33]: 0.748 | ELISA binding value [34]: 0.589 | ELISA binding value [35]: 2.22 | ELISA binding value [36]: 2.42 | ELISA binding value [37]: 1.75 | ELISA binding value [38]: 0.606 | ELISA binding value [39]: 1.79
